{
  "source": "paper PMC13065503",
  "target": "ArtiMYC (3) (UniProt P01106)",
  "sequence (P01106 365-454)": "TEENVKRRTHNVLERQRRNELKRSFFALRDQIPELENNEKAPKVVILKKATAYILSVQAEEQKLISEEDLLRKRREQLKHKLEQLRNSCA",
  "test": "EMSA",
  "details": "EMSA: 20 mM HEPES pH 8.0, 150 mM NaCl, 5% glycerol, 1 mM EDTA, 2 mM MgCl2, 0.5 mg/mL BSA, 1 mM DTT, 0.05% NP-40; 4 nM DNA; 30 min RT then 15 min on ice; 10% …",
  "data": [
    {"sequence": "ACCCCACCACGTGGTGCCT (double strand) [E-box DNA]", "values": [
      {"measurement": "Kd", "value": 24, "unit": "nM"}
    ]}
  ]
}
